The target of this experiment is biotinylated VP1 pentamer of BKV genotype I (BK virus genotype I) (UniProt P03088). The experiment in a line: BLI, biotinylated VP1 pentamer on streptavidin sensor, mAb 0 to 40 nM.

These results are taken from patent publication US20260265347A1.

pKd: −log10 of the molar value.

Take “MTX005 from Memo Therapeutics AG (referred as 319C07 in WO2021/250097) (antibody)”: the negative-log Kd (pKd) – broadly, the negative decadic logarithm of the Kd, by convention in mol/L – is 7.75.
